Substitutions are numbered along the chain they refer to. Several values for one entry are separate records, joined by “and”; a condition that tells them apart may be missing. Equal entries are not always repeated.
What was measured:
recombinant rabbit IL-4 = target: T1, recombinant rabbit IL-4 (rabbit, UniProt Q9MZR8 25-147, limits assumed); test: competition ELISA: test species IL-4 against biotinylated human IL-4 for binding to IL4-1305
T1 sequence (looked up): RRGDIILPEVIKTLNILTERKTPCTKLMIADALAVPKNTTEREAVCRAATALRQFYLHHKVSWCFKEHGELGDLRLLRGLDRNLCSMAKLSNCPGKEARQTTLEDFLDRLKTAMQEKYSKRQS
Description: (§1) Recombinant human, mouse, rat, dog, and rabbit IL 4 were purchased from R&D Systems (Minneapolis, MN). Recombinant cynomolgus monkey and sheep IL-4 were prepared by Pfizer, Cambridge, MA).

recombinant rat IL-4 = target: T2, recombinant rat IL-4 (rat, UniProt P20096 25-147, limits assumed); test: as above
T2 sequence (looked up): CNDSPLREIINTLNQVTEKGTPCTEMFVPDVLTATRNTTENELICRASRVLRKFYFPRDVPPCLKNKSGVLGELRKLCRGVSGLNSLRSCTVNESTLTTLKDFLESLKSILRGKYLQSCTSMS
Description: as §1

recombinant dog IL-4 = target: T3, recombinant dog IL-4 (dog, UniProt O77762 25-132); test: as above
T3 sequence (looked up): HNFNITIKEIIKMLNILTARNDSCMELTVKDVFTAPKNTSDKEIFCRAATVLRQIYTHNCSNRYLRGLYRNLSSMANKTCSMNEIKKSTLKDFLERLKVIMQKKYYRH
Description: as §1

[1] = target: T4, recombinant cynomolgus monkey IL-4 (cynomolgus monkey, UniProt P79339 25-153); test: as above
T4 construct: also called Cyno IL-4
T4 sequence (looked up): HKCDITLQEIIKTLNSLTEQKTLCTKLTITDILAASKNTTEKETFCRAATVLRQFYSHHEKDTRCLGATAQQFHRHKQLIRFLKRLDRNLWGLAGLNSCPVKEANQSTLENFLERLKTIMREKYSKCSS
Description: as §1

recombinant mouse IL-4 = target: T5, recombinant mouse IL-4 (mouse, UniProt P07750 23-140); test: as above
T5 sequence (looked up): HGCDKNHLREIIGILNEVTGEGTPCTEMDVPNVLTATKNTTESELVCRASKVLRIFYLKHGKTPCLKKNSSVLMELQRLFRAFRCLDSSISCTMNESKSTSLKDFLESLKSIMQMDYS
Description: as §1

recombinant sheep IL-4 = target: T6, recombinant sheep IL-4 (sheep, UniProt P30368 25-135, limits assumed); test: as above
T6 sequence (looked up): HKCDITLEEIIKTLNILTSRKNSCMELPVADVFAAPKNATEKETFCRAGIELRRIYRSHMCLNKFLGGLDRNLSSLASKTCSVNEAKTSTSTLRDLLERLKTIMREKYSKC
Description: as §1

recombinant human IL-4 = target: T7, recombinant human IL-4 (human, UniProt P05112 25-153); test: cell-based or functional assay
T7 sequence (looked up): T4 sequence (looked up) with K26E, I29V, L33F

dog IL-4 = target: T8, dog IL-4 (dog, UniProt O77762 25-132); test: ELISA: competition with biotinylated human IL-4 for binding to IL4-1305
T8 sequence (looked up): T3 sequence (looked up)
Description: as §1

rat IL-4 = target: T9, rat IL-4 (rat, UniProt P20096 25-147, limits assumed); test: as above
T9 construct: also called rt IL-4
T9 sequence (looked up): T2 sequence (looked up)
Description: as §1

cynomolgus monkey IL-4 = target: T10, cynomolgus monkey IL-4 (cynomolgus monkey, UniProt P79339 25-153); test: as above
T10 construct: mature; also called cy IL-4; cyno IL-4
T10 sequence (looked up): T4 sequence (looked up)
Description: as §1

mouse IL-4 = target: T11, mouse IL-4 (mouse, UniProt P07750 23-140); test: as above
T11 construct: also called mu IL-4
T11 sequence (looked up): T5 sequence (looked up)
Description: as §1

sheep IL-4 = target: T12, sheep IL-4 (sheep, UniProt P30368 25-135, limits assumed); test: as above
T12 sequence (looked up): T6 sequence (looked up)
Description: as §1

rabbit IL-4 = target: T13, rabbit IL-4 (rabbit, UniProt Q9MZR8 25-147, limits assumed); test: as above
T13 construct: also called rb IL-4
T13 sequence (looked up): T1 sequence (looked up)
Description: as §1

human IL-13 [2] = target: T14, human IL-13 (human, UniProt P35225 35-146); test: cell-based or functional assay
T14 sequence (P35225 35-146 limits assumed, form in doubt): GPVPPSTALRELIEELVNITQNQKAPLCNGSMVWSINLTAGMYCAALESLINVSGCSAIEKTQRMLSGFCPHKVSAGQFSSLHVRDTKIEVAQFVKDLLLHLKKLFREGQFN

cynomolgus monkey IL-13 = target: T15, cynomolgus monkey IL-13 (cynomolgus monkey, UniProt Q0PW92 19-132); test: ELISA: competition with biotinylated human IL-13 for binding to IL13-0001
T15 construct: also called cy IL-13; cyno IL-13; not shown: N-terminal FLAG tag of the Pfizer-made protein
T15 sequence (Q0PW92 entry or part of it limits assumed): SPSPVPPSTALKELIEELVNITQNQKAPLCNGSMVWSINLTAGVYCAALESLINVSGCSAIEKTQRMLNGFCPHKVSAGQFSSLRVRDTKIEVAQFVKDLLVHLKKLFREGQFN

dog IL-13 = target: T16, dog IL-13 (dog, UniProt Q9N0W9 19-131, limits assumed); test: as above
T16 sequence (looked up): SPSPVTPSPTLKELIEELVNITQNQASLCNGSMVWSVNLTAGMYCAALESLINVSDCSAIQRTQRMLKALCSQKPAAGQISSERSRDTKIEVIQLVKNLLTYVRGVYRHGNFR
Excerpt: (§2) Recombinant human, mouse, rat, and dog IL 13 were purchased from R&D Systems (Minneapolis, MN). Recombinant sheep and rabbit IL-13 were produced by Pfizer Global Biotechnologies (PGBT, Cambridge, MA). Recombinant cynomolgus monkey IL 13 was purchased from Sino Biological (Beijing, China).

mouse IL-13 = target: T17, mouse IL-13 (mouse, UniProt P20109 26-131, limits assumed); test: as above
T17 construct: also called mu IL-13
T17 sequence (looked up): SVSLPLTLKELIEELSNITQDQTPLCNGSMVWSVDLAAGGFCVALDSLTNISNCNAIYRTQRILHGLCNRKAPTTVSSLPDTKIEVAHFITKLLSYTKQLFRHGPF
Excerpt: as §2

human IL-13 [3] = target: T14, human IL-13; test: cell-based or functional assay; remark: listed apart in the source
human IL-13 [4] = target: T14, human IL-13; test: SPR 37°C, antibody captured by anti-human IgG, human IL-13 1.56-50 nM
Description: The affinity values (KD) were determined using Surface Plasmon Resonance (SPR) for 10 lead variants identified from bioassay screening.

native human IL-13 = native human IL-13 (human, UniProt P35225 35-146, limits assumed); test: cell-based or functional assay
Chain of native human IL-13 (P35225 35-146 limits assumed): as the sequence (P35225 35-146 limits assumed, form in doubt) above

recombinant human IL-13 [5] = target: T18, recombinant human IL-13 (human, UniProt P35225 35-146); test: cell-based or functional assay
T18 sequence (P35225 35-146 limits assumed): as the sequence (P35225 35-146 limits assumed, form in doubt) above

[6] = target: T19, recombinant cynomolgus monkey IL-13 (cynomolgus monkey, UniProt Q0PW92 19-132); test: competition ELISA: test species IL-13 against biotinylated human IL-13 for binding to IL13-0001
T19 construct: also called Cyno IL-13
T19 sequence (Q0PW92 entry or part of it limits assumed): as the sequence (Q0PW92 entry or part of it limits assumed) above
Excerpt: as §2

recombinant dog IL-13 = target: T20, recombinant dog IL-13 (dog, UniProt Q9N0W9 19-131, limits assumed); test: as above
T20 sequence (looked up): T16 sequence (looked up)
Excerpt: as §2

recombinant mouse IL-13 = target: T21, recombinant mouse IL-13 (mouse, UniProt P20109 26-131, limits assumed); test: as above
T21 sequence (looked up): T17 sequence (looked up)
Excerpt: as §2

recombinant human IL-13 [7] = target: T18, recombinant human IL-13; test: cell-based or functional assay; remark: listed apart in the source
recombinant human IL-13 [8] = target: T18, recombinant human IL-13; test: cell-based or functional assay; remark: listed apart in the source
recombinant human IL-13 [9] = target: T18, recombinant human IL-13; test: cell-based or functional assay; remark: listed apart in the source

B1: IL4-1305 (antibody, human IgG1, kappa)
heavy: EVTLRESGPALVKPTQTLTLTCTFSGFSLSNFGEGLSWIRQPPGKGLEWLAHIYWDDDKRYNPSLKSRLTISKDTSRNQVVLTMTNMDPVDTATYYCARRETVFYWYFDVWGRGTPVTVSSASTKGPSVFPLAPSSKSTSGGTAALGCLVKDYFPEPVTVSWNSGALTSGVHTFPAVLQSSGLYSLSSVVTVPSSSLGTQTYICNVNHKPSNTKVDKKVEPKSCDKTHTCPPCPAPEAAGAPSVFLFPPKPKDTLMISRTPEVTCVVVDVSHEDPEVKFNWYVDGVEVHNAKTKPREEQYNSTYRVVSVLTVLHQDWLNGKEYKCKVSNKALPAPIEKTISKAKGQPREPQVYTLPPSREEMTKNQVSLTCLVKGFYPSDIAVEWESNGQPENNYKTTPPVLDSDGSFFLYSKLTVDKSRWQQGNVFSCSVMHEALHNHYTQKSLSLSPGK
light: DIQMTQSPSSLSASVGDRVTITCKASQSVDEDGDSYMNWYQQKPGKAPKLLIYAASNLESGVPSRFSGSGSGTDFTLTISSLQPEDFATYYCQQSNEDPPTFGGGTKVEIKRTVAAPSVFIFPPSDEQLKSGTASVVCLLNNFYPREAKVQWKVDNALQSGNSQESVTEQDSKDSTYSLSSTLTLSKADYEKHKVYACEVTHQGLSSPVTKSFNRGEC
binding result (recombinant rabbit IL-4): no binding
binding result (recombinant rat IL-4): no binding
binding result (recombinant dog IL-4): no binding
binding result [1]: binds
binding result (recombinant mouse IL-4): no binding
binding result (recombinant sheep IL-4): no binding
IC50 for STAT6 Phosphorylation in gated B Cells, human whole blood (recombinant human IL-4): 73 pM
IC50 for STAT6 Phosphorylation in gated Monocytes, human whole blood (recombinant human IL-4): 100 pM
IC50 for STAT6 Phosphorylation in gated T cells, human whole blood (recombinant human IL-4): 75 pM

B2: IL4-1305 (antibody, IgG1)
VH: EVTLRESGPALVKPTQTLTLTCTFSGFSLSNFGEGLSWIRQPPGKGLEWLAHIYWDDDKRYNPSLKSRLTISKDTSRNQVVLTMTNMDPVDTATYYCARRETVFYWYFDVWGRGTPVTVSS
light: B1 light
notes: IgG1 effector-null
binding result (dog IL-4): no binding
binding result (rat IL-4): no binding
binding result (cynomolgus monkey IL-4): binds
binding result (mouse IL-4): no binding
binding result (sheep IL-4): no binding
binding result (rabbit IL-4): no binding

B3: IL13-0001 (antibody, human IgG1, kappa, V domains shown)
VH: EVQLVESGGGLVQPGGSLRLSCAASGFTFSSYAMSWVRQAPGKGLEWVASISSGDTTYYPDSVKGRFTISRDNAKNSLYLQMNSLRAEDTAVYYCARNEGYYFGLTLWGQGTLVTVSS
VL: DIQMTQSPSSLSASVGDRVTITCKASESVDHFGWSLVHWYQQKPGKAPKLLIYRASNLESGVPSRFSGSGSGTDFTLTISSLQPEDFATYYCQQSNEDPWTFGGGTKVEIKR
notes: also called IL13433-0001; 1RVHC9-VLA4
CD23: Fold bioactivity relative to IL13-0001 (human IL-13 [2]): 1 fold
CD23: Fold bioactivity relative to IL13-1307 (human IL-13 [2]): 29.1 fold
CD23 IC50 [pM] (human IL-13 [2]): 10.5 pM
pSTAT6: Fold bioactivity relative to IL13-0001 (human IL-13 [2]): 1 fold
pSTAT6: Fold bioactivity relative to IL13-1307 (human IL-13 [2]): 1.5 fold
pSTAT6 IC50 [pM] (human IL-13 [2]): 92 pM
binding result (cynomolgus monkey IL-13): binds
binding result (dog IL-13): no binding
binding result (mouse IL-13): no binding
CD23: Fold versus IL13-0001 (human IL-13 [3]): 1 fold
CD23 IC50 [pM] Ave. n = 2 (human IL-13 [3]): 6 pM
Kd (human IL-13 [4]): 57.7 pM

B4: IL13-0001 (antibody, human IgG1, kappa, V domains shown)
VH: B3 VH
VL: B3 VL
notes: as for B3
IC50 (median), STAT6 phosphorylation in HT-29 cells (native human IL-13): 79 pM
IC50 (median), Monocyte CD23 expression (recombinant human IL-13 [5]): 10.5 pM
IC50 (median), STAT6 phosphorylation in HT-29 cells (recombinant human IL-13 [5]): 92 pM
binding result [6]: binds
binding result (recombinant dog IL-13): no binding
binding result (recombinant mouse IL-13): no binding
IL-13 induced CD23 upregulation (IC50), parental IgG (recombinant human IL-13 [7]): 4.7 pM and 4.38 pM
IC50 (median), IL-13 induced CD23 expression on human monocytes (recombinant human IL-13 [8]): 4.38 pM
IC50 (median) for STAT6 Phosphorylation in gated B Cells, human whole blood (recombinant human IL-13 [9]): 66.5 pM
IC50 (median) for STAT6 Phosphorylation in gated Monocytes, human whole blood (recombinant human IL-13 [9]): 525 pM

Source: US20240117030A1 (Pfizer, published 2024)
